These results are taken from publication PMC3934923.

For the assay, the target named is LKB1 (endogenous, C2C12 myotubes) (mouse (endogenous in C2C12)) (UniProt Q9WTK7). The settings on record: scale: % of the AMPK phosphorylation obtained with AICAR.
UniProt Q9WTK7, sequence (Q9WTK7 whole entry): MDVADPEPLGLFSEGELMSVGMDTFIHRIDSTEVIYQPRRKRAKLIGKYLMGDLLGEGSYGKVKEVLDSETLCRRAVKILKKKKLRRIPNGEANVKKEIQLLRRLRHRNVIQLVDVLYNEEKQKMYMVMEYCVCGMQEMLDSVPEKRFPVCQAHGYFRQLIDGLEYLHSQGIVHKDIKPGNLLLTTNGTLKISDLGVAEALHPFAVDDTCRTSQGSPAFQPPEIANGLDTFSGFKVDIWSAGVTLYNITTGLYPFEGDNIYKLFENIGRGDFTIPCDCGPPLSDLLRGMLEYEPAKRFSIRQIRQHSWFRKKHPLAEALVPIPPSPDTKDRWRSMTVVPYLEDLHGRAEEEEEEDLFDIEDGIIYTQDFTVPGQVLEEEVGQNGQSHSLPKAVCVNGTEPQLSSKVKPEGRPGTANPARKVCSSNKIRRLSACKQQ

“Fyn (endogenous, C2C12 myotubes) (from UniProt P39688 1-537) (enzyme)” returned an AMPK T172 phosphorylation in C2C12 myotubes transduced with increasing concentrations of 11R-WT, immunoblot; little effect with 11R-Sca of 80.
